Two molecules from PMC11643329, “DNA sequence-induced solid phase transition as a solution to the genome folding paradox” (Research Square, 2024) can be followed below.

B1: truncated Sumo-Lhx2 (Lhx2 1-350, lacks the C-terminal intrinsically disordered region) (domain or fragment, UniProt Q9Z0S2 1-350, looked up)
chain: MLFHSLSGPEVHGVIDEMDRRAKSEAPAISSAIDRGDTETTMPSISSDRAALCAGCGGKISDRYYLLAVDKQWHMRCLKCCECKLNLESELTCFSKDGSIYCKEDYYRRFSVQRCARCHLGISASEMVMRARDLVYHLNCFTCTTCNKMLTTGDHFGMKDSLVYCRLHFEALLQGEYPAHFNHADVAAAAAAAAAAKSAGLGSAGANPLGLPYYNGVGTVQKGRPRKRKSPGPGADLAAYNAALSCNENDAEHLDRDQPYPSSQKTKRMRTSFKHHQLRTMKSYFAINHNPDAKDLKQLAQKTGLTKRVLQVWFQNARAKFRRNLLRQENTGVDKTSDATLQTGTPSGPA
notes: Lhx2, LIM-homeodomain transcription factor, residues 1-350 followed by a stop codon; Construct order as printed: 6xHis - Sumo - strep II - Lhx2 in pET28b; also called truncated Lhx2; source: E. coli BL21, purified (HisTrap, HiTrap Heparin, dialysis); not shown: Sumo, N-terminal, kept

The target of assay [1] is T1, full length Halo-Ldb1 (Ldb1 1-411) (UniProt P70662 1-411, Halo-tag ligand Coumarin dye on the Halo tag (incubated at 1:10 molar equivalent)).
T1 construct: Construct order as printed: 6x His - Halo tag - Ldb1 1-411 - stop codon in pET-duet; The EMSA legend says only 'full-length Ldb1'; This is the only full-length Ldb1 construct that the methods describe; also called full length Ldb1; FL Halo-Ldb1; source: E. coli BL21, purified (HisTrap, dialysis); not shown: Halo tag, N-terminal, kept
T1 sequence (looked up): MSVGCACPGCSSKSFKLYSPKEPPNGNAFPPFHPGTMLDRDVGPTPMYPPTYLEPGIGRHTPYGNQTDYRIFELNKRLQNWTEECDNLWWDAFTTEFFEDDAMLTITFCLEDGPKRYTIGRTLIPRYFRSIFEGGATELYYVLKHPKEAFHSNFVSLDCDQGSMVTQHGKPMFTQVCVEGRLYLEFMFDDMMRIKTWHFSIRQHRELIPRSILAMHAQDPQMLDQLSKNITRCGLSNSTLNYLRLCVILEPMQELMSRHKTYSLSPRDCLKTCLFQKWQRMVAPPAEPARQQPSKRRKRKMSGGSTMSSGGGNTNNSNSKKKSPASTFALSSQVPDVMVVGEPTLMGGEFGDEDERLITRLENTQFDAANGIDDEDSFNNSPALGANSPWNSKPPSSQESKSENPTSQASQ
The assay can be described thus: native gel or EMSA; purified proteins mixed with 2000 fmol ATTO-488 labelled composite motif DNA probe; Ldb1 added to DNA-bound Lhx2 and/or Ebf1; 10 mM HEPES, 150 mM NaCl, 5% glycerol, 0.5% NP-40, 1 mg/mL BSA, 0.1 mg/mL poly dI-dC; 30 minutes at 4C; 6% native gel. The following applies: both partners purified. On the technique in general: Mobility shift assays separate free from complexed probe on a gel.

Assay [2] has as its target B1. The assay is described as above. The settings on record: both partners purified.

For the molecule B1, the binding result in assay [1] was “binds”.

B2: Ldb1 Lim interaction domain (Ldb1-LID), Sumo-Ldb1 320-375 (domain or fragment, UniProt P70662 320-375, looked up)
chain: KKKSPASTFALSSQVPDVMVVGEPTLMGGEFGDEDERLITRLENTQFDAANGIDDE
notes: Construct order as printed: 6x His - Sumo - Ldb1 320-375 - stop codon in pET28; also called truncated Ldb1 protein; Sumo-Ldb1-LID domain; source: E. coli BL21, purified (HisTrap, Superdex 75 size exclusion); not shown: Sumo, N-terminal, kept
For the molecule B2, the binding result in assay [2] was “binds”.
